Results: patent US10450368

Columns and labels:
[1] = molecular target: CH505.TF mutant gp120 M8 (HIV-1); test: direct-binding ELISA (OD450), panel 'CH505.TF gp120 M8'
[2] = molecular target: HIV-1 Env resurface core protein 3 (RSC3); test: direct-binding ELISA (OD450), panel 'RSC3'
RSC3 delta371I = test: ELISA
CH505.TF gp120 delta371I = test: direct-binding ELISA (OD450), panel 'CH505.TF gp120 delta371I'

Substance: 2G12 (antibody)
- EC50 (read off the curve) [1]: 0.2 µg/mL
- EC50 (read off the curve) [2]: 0.01 µg/mL
- EC50 (read off the curve) (RSC3 delta371I): 0.01 µg/mL
- EC50 (read off the curve) (CH505.TF gp120 delta371I): 0.2 µg/mL
